Source: patent publication US20240239894A1 (AstraZeneca / MedImmune, published 2024)
Substitutions are numbered along the chain they refer to.

T1: Human B7H4 (ECD) Fc TM 6H (human, UniProt Q7Z7D3)
T1 construct: ECD, native leader
T1 sequence (Q7Z7D3 whole entry, looked up): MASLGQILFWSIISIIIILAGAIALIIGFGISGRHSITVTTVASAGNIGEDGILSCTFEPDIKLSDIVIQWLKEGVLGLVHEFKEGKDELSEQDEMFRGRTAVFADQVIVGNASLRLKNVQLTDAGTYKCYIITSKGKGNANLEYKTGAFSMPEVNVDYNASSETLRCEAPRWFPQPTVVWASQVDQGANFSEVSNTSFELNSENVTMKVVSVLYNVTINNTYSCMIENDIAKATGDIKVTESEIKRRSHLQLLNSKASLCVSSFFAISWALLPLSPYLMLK

T2: huBTN2A1 (human, UniProt Q7KYR7 29-248, limits assumed)
T2 construct: Sourced antigen; construct not described; also called Human BTN2A1
T2 sequence (looked up): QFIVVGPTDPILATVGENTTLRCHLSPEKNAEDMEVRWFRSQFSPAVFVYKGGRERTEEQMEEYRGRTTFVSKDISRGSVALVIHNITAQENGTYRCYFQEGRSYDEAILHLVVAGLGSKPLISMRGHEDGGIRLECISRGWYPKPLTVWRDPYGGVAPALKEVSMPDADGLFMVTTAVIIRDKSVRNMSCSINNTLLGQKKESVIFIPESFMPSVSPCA

T3: huBTNL3 (human, UniProt Q6UXE8 18-237, limits assumed)
T3 construct: Sourced antigen; construct not described; also called Human BTNL3
T3 sequence (looked up): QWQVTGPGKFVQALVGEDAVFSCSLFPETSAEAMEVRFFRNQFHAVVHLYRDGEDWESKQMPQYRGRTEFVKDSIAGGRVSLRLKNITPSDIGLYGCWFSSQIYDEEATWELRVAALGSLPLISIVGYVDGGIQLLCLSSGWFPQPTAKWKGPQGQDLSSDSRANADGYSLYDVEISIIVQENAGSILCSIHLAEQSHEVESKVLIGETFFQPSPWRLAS

T4: Human B7-H4-Fc (Human B7H4 ECD, Fc_6His) (human)
T4 construct: also called FcHis6 tagged human B7-H4
T4 sequence (Q7Z7D3 whole entry, looked up): T1 sequence (Q7Z7D3 whole entry, looked up)

T5: Murine B7-H4-Fc (Mouse B7H4 ECD, Fc_6His) (mouse, UniProt Q7TSP5 25-257)
T5 construct: extracellular domain; also called mouse B7-H4-Fc; FcHis6 tagged murine B7-H4
T5 sequence (Q7TSP5 whole entry, looked up): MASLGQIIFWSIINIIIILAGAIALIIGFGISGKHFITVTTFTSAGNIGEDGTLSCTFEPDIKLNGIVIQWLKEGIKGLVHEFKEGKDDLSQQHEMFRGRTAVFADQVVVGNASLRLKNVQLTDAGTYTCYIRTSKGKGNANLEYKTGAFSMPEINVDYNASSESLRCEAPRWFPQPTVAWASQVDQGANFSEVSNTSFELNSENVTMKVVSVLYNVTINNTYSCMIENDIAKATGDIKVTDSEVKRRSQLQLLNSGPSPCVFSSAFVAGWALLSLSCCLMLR

T6: huHHLA2 (human, UniProt Q9UM44 23-344)
T6 construct: Sourced antigen; construct not described; also called Human HHLA2
T6 sequence (looked up): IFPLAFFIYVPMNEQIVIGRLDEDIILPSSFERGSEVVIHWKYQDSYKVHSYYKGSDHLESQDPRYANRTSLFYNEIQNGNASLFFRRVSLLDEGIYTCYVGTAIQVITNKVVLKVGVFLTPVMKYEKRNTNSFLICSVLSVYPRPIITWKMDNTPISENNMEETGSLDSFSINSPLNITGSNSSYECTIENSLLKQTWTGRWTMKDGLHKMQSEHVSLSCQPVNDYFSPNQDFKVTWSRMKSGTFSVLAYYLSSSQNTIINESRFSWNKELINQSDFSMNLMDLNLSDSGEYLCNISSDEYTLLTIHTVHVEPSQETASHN

T7: huBTN1A1 (human, UniProt Q13410 27-242, limits assumed)
T7 construct: Sourced antigen; construct not described; also called Human BTN1A1
T7 sequence (looked up): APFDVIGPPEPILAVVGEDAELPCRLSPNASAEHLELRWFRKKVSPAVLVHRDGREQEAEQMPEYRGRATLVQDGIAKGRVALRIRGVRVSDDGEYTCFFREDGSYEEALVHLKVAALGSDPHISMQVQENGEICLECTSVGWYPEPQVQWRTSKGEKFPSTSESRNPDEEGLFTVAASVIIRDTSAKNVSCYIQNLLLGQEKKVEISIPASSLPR

T8: huB7-H3 (human, UniProt Q5ZPR3 29-461, limits assumed)
T8 construct: Sourced antigen; construct not described; also called Human B7-H3
T8 sequence (looked up): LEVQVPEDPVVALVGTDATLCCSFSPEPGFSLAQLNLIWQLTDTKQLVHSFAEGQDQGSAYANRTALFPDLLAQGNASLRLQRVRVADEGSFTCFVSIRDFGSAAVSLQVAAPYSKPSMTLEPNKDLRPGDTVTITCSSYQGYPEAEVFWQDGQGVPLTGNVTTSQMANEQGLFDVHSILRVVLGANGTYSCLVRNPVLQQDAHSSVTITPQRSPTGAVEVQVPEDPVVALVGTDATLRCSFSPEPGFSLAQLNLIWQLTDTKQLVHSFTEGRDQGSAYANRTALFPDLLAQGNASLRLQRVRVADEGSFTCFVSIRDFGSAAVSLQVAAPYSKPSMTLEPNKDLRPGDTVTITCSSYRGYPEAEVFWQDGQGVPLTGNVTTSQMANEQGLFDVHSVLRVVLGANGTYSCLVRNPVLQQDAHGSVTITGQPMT

T9: huB7-H2 (human, UniProt O75144 19-258)
T9 construct: Sourced antigen; construct not described; also called Human B7-H2
T9 sequence (looked up): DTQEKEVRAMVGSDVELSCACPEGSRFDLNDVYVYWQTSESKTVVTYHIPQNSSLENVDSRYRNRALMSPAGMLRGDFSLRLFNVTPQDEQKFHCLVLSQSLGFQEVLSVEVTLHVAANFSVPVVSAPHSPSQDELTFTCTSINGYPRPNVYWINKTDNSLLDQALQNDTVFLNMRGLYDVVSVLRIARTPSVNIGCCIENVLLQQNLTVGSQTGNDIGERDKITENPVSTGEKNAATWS

T10: Human B7-H4 ECD-Flag-His10 (monomeric) (human, UniProt Q7Z7D3 25-259)
T10 construct: Minimally biotinylated for KinExA; also called hB7H4-ECD-Flag-His10; B7-H4-FLAG
T10 sequence: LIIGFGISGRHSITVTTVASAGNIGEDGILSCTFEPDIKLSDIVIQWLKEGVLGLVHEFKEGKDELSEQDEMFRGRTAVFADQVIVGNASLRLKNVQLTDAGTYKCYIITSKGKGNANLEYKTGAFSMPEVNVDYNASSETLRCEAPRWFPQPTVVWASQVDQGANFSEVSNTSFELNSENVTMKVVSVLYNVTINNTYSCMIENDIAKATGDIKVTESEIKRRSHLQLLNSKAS

B1: E02-GL-maia (antibody, human IgG1, kappa)
heavy: QVQLQQWGAGLLKPSETLSLACTVYGGSFSGYYWNWIRQPPGKGLEWIGEINHSGSTSYNPSLKSRVTISVDTSKNQFSLKLSSVTAADTAVYYCARVLYNWNVDSWGQGTLVTVSSASTKGPSVFPLAPSSKSTSGGTAALGCLVKDYFPEPVTVSWNSGALTSGVHTFPAVLQSSGLYSLSSVVTVPSSSLGTQTYICNVNHKPSNTKVDKRVEPKSCDKTHTCPPCPAPELLGGPSCVFLFPPKPKDTLMISRTPEVTCVVVDVSHEDPEVKFNWYVDGVEVHNAKTKPREEQYNSTYRVVSVLTVLHQDWLNGKEYKCKVSNKALPAPIEKTISKAKGQPREPQVYTLPPSREEMTKNQVSLTCLVKGFYPSDIAVEWESNGQPENNYKTTPPVLDSDGSFFLYSKLTVDKSRWQQGNVFSCSVMHEALHNHYTQKSLSLSPGK
light: DIQMTQSPSSLSASVGDRVTITCRASQDIRNDVGWYQQKPGKAPKRLIYAASRLQSGVPSRFSGSGSGTEFTLTISSLQPEDFATYYCLQHNSYPRTFGQGTKVEIKRTVAAPSVFIFPPSDEQLKSGTASVVCLLNNFYPREAKVQWKVDNALQSGNSQESVTEQDSKDSTYSLSSTLTLSKADYEKHKVYACEVTHQGLSSPVTKSFNRGEC
notes: Maia format: cysteine insertion in the IgG1 constant region; also called germlined (GL) Maia format mAb
B2: ZY0EPQ-E02 murine IgG1 (antibody, V domains shown)
VH: QVQLQQWGAGLLKPSETLSLTCAVYGGSFSGYYWNWIRQPPGKGLEWIGEINHSGSTNYNPSLKSRVTILVDTSKNQFSLKLSSVTAADTAVYYCARNLYNWNLDSWGQGTLVTVSS
VL: DIQMTQSPSSLSASVGDRVTITCRASQGIRNDLGWYQQKPGRAPKRLIYVASSLQSGVPSRFSGSGSGTEFTLTISSLQPEDFATYYCLQHNSYPRTFGQGTKVEIK
B3: E02-GL (ZY0EQD_E02, germlined) (antibody, V domains shown)
VH: B2 VH with T21A, A23T, N58S, L70S, N98V, L104V
VL: B2 VL with G28D, L33V, R42K, V50A, S53R
notes: AF647-labelled in flow cytometry; also called EQD-E02_GL; ZY0EQD-E02-GL
B4: ZY0EQD-E02 murine IgG1 (antibody, V domains shown)
VH: B2 VH with N58S, L70S, N98V, L104V
VL: B2 VL with G28D, L33V, R42K, V50A, S53R

How the values were obtained:
[1] = molecular target: T11, Cyno B7-H4-Fc (Cyno B7H4 ECD, FcTM_6His) (cynomolgus monkey); experiment: ELISA, absorbance 450 nm, Cyno B7H4 (ECD) Fc TM 6H; x axis printed as antigen concentration (nM)
T11 construct: extracellular domain; also called cynomolgus B7-H4-Fc

[2] = molecular target: T1, Human B7H4 (ECD) Fc TM 6H; experiment: ELISA, absorbance 450 nm, Human B7H4 (ECD) Fc TM 6H; x axis printed as antigen concentration (nM)
huBTN2A1 = molecular target: T2, huBTN2A1; experiment: ELISA
huBTNL3 = molecular target: T3, huBTNL3; experiment: ELISA
[3] = molecular target: T4, Human B7-H4-Fc (Human B7H4 ECD, Fc_6His); experiment: HTRF binding, murine IgG1
[4] = molecular target: T11, Cyno B7-H4-Fc (Cyno B7H4 ECD, FcTM_6His); experiment: HTRF binding, murine IgG1
[5] = molecular target: T5, Murine B7-H4-Fc (Mouse B7H4 ECD, …); experiment: HTRF binding, murine IgG1
huHHLA2 = molecular target: T6, huHHLA2; experiment: ELISA, absorbance 450 nm, antigen human HHLA2 GST
huBTN1A1 = molecular target: T7, huBTN1A1; experiment: ELISA, absorbance 450 nm, antigen human BTN1A1 GST
huBTN3A2 = molecular target: T12, huBTN3A2 (human, UniProt P78410 30-248, limits assumed); experiment: ELISA, absorbance 450 nm, antigen human BTN3A2 GST
T12 construct: Sourced antigen; construct not described; also called Human BTN3A2
T12 sequence (P78410 30-248 limits assumed): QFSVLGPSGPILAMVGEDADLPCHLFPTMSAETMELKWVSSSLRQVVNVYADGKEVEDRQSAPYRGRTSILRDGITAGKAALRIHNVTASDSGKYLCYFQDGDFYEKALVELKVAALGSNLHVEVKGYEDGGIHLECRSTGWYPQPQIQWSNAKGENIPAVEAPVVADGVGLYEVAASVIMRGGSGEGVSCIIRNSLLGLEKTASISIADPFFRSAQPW

huB7-H3 = molecular target: T8, huB7-H3; experiment: ELISA, absorbance 450 nm, antigen human B7-H3 (ECD) Fc
huB7-H1 = molecular target: T13, huB7-H1 (human, UniProt Q9NZQ7 19-238); experiment: ELISA, absorbance 450 nm, antigen human B7-H1(ECD) F10H
T13 construct: Sourced antigen; construct not described; also called Human B7-H1
T13 sequence (Q9NZQ7 19-238 limits assumed): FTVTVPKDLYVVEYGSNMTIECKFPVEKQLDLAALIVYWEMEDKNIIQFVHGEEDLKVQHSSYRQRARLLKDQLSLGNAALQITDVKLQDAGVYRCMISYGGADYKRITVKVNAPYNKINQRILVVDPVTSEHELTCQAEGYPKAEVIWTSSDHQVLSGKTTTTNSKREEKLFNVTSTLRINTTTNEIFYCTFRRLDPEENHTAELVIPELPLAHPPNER

huB7-H2 = molecular target: T9, huB7-H2; experiment: ELISA, absorbance 450 nm, antigen human B7-H2 (ECD) F10H
[6] = molecular target: T4, Human B7-H4-Fc (Human B7H4 ECD, Fc_6His); experiment: ELISA, absorbance 450 nm; x axis of this panel printed as Antibody Conc (µg/ml)
[7] = molecular target: T10, Human B7-H4 ECD-Flag-His10 (monomeric); experiment: as above
[8] = molecular target: T4, Human B7-H4-Fc (Human B7H4 ECD, Fc_6His); experiment: ELISA on coated human B7H4/Fc, absorbance 450 nm, [IgG] 0.006 to 100 nM
[9] = molecular target: T4, Human B7-H4-Fc (Human B7H4 ECD, Fc_6His); experiment: ELISA, absorbance 450 nm; x axis printed as antigen concentration (µg/ml)
[10] = molecular target: T10, Human B7-H4 ECD-Flag-His10 (monomeric); experiment: as above

Binder	binding result (huBTN2A1)	binding result (huBTNL3)	EC50 [3]	Max [3]	EC50 [4]	Max [4]	EC50 [5]	Max [5]	binding result (huHHLA2)	binding result (huBTN1A1)	binding result (huBTN3A2)	binding result (huB7-H3)	binding result (huB7-H1)	binding result (huB7-H2)	further results
B1	–	–	–	–	–	–	–	–	–	–	–	–	–	–	EC50 (read off the curve) [1]: ~10 nM; EC50 (read off the curve) [2]: ~10 nM
B2	no binding	no binding	0.38 nM	2740	0.38 nM	2240	2.03 nM	790	no binding (tested: about 10 µg/ml (antigen))	no binding (tested: 10 µg/ml (antigen))	no binding (tested: about 10 µg/ml (antigen))	no binding	no binding (tested: 10 µg/ml (antigen))	no binding (tested: 10 µg/ml (antigen))	EC50 (read off the curve) [6]: ~0.2 µg/mL; EC50 (read off the curve) [7]: ~0.2 µg/mL
B3	–	–	–	–	–	–	–	–	–	–	–	–	–	–	EC50 (read off the curve) [8]: ~0.5 nM
B4	no binding	no binding	0.22 nM	3170	0.22 nM	2490	3.64 nM	447	no binding (tested: about 10 µg/ml (antigen))	no binding (tested: 10 µg/ml (antigen))	no binding (tested: about 10 µg/ml (antigen))	no binding	no binding (tested: 10 µg/ml (antigen))	no binding (tested: 10 µg/ml (antigen))	EC50 (read off the curve) [9]: ~0.03 µg/mL; EC50 (read off the curve) [10]: ~0.04 µg/mL
